Experimental findings from publication PMC9279676, “ERK2 MAP kinase regulates SUFU binding by multisite phosphorylation of GLI1” (Life Science Alliance, 2022) are described below.

The chains are these.
T1: GST-SUFU (fusion of GST to full-length human SUFU) (human, UniProt Q9UMX1-1 1-484)
T1 construct: human SUFU, full length (residues 1-484), BamHI-SUFU-SalI cassette in pGEX-LB; pGEX-LB carries a Gly-Gly-Gly-Gly-Gly-Ser-Gly stretch between GST and the fused protein; also called full-length GST-SUFU; source: Escherichia coli, purified (glutathione-Sepharose); not shown: GST, N-terminal, kept
T1 sequence (looked up): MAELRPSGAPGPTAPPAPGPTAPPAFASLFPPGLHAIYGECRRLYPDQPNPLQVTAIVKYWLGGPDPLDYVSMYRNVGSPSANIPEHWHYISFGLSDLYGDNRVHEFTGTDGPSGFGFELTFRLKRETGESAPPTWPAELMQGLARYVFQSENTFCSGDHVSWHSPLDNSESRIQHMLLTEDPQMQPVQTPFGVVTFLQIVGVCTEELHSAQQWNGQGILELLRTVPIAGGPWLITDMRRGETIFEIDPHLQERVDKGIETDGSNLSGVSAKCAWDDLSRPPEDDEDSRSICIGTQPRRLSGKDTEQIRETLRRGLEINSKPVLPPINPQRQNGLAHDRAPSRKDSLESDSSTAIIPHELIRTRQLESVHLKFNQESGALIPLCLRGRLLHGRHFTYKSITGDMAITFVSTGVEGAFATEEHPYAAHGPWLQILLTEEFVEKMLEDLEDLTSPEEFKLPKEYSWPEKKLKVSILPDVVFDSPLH

T2: full-length human SUFU protein, 35S-radiolabeled (human, UniProt Q9UMX1-1 1-484, [35S]-methionine label)
T2 construct: human SUFU, full length, residues 1-484, from plasmid pGEM4Z-SUFU; also called 35S-SUFU; radiolabeled SUFU; source: in vitro transcription and translation (SP6, Promega), partially purified by ammonium sulfate precipitation
T2 sequence (looked up): T1 sequence (looked up)

B1: GLI1_(1-232), wild type, 35S-radiolabeled (domain or fragment, human, UniProt P08151-1 1-232, looked up)
chain: MFNSMTPPPISSYGEPCCLRPLPSQGAPSVGTEGLSGPPFCHQANLMSGPHSYGPARETNSCTEGPLFSSPRSAVKLTKKRALSISPLSDASLDLQTVIRTSPSSLVAFINSRCTSPGGSYGHLSIGTMSPSLGFPAQMNHQKGPSPSFGVQPCGPHDSARGGMIPHPQSRGPFPTCQLKSELDMLVGKCREEPLEGDMSSPNSTGIQDPLLGMLDGREDLEREEKREPESV
modifications: [35S]-methionine label
notes: source: in vitro transcription/translation (T7), partially purified by ammonium sulfate precipitation
B2: GLI1_(1-232) S105F (tumor-derived), 35S-radiolabeled (domain or fragment, human, UniProt P08151-1 1-232, looked up)
chain: B1 chain with S105F
modifications: [35S]-methionine label
notes: source: in vitro transcription/translation, partially purified by ammonium sulfate precipitation
B3: GLI1_(1-232) S102E S116E S130E, 35S-radiolabeled (domain or fragment, human, UniProt P08151-1 1-232, looked up)
chain: B1 chain with S102E, S116E, S130E
modifications: [35S]-methionine label
notes: also called S102E S116E S130E triple mutant; EEE; source: in vitro transcription/translation (T7), partially purified by ammonium sulfate precipitation
B4: GLI1_(1-232) S102E, 35S-radiolabeled (domain or fragment, human, UniProt P08151-1 1-232, looked up)
chain: B1 chain with S102E
modifications: [35S]-methionine label
notes: as for B1
B5: GLI1_(1-232) S102E S130E, 35S-radiolabeled (domain or fragment, human, UniProt P08151-1 1-232, looked up)
chain: B1 chain with S102E, S130E
modifications: [35S]-methionine label
notes: also called S102E S130E double mutant; source: in vitro transcription/translation (T7), partially purified by ammonium sulfate precipitation
B6: GLI1_(1-232) S102E S116E, 35S-radiolabeled (domain or fragment, human, UniProt P08151-1 1-232, looked up)
chain: B1 chain with S102E, S116E
modifications: [35S]-methionine label
notes: also called S102E S116E double mutant; source: in vitro transcription/translation (T7), partially purified by ammonium sulfate precipitation
B7: GLI1_(1-232) L124P (tumor-derived), 35S-radiolabeled (domain or fragment, human, UniProt P08151-1 1-232, looked up)
chain: B1 chain with L124P
modifications: [35S]-methionine label
notes: as for B2
B8: GST-GLI1_(68-232), wild type, unphosphorylated (mock treated) (domain or fragment, human, UniProt P08151-1 68-232, looked up)
chain: FSSPRSAVKLTKKRALSISPLSDASLDLQTVIRTSPSSLVAFINSRCTSPGGSYGHLSIGTMSPSLGFPAQMNHQKGPSPSFGVQPCGPHDSARGGMIPHPQSRGPFPTCQLKSELDMLVGKCREEPLEGDMSSPNSTGIQDPLLGMLDGREDLEREEKREPESV
notes: vector pGEX-LB (Gly-Gly-Gly-Gly-Gly-Ser-Gly stretch between GST and the fused part); the plasmid is from Whisenant et al, 2010; also called wild-type GLI1; WT; source: bacteria, purified (glutathione-Sepharose); untreated or mock treated (no ERK2)
B9: GST-GLI1^7A (GST-GLI1_(68-232) with all seven SP serines changed to alanine), mock treated (domain or fragment, human, UniProt P08151-1 68-232, looked up)
chain: B8 chain with S3A, S19A, S35A, S49A, S63A, S79A, S134A
notes: source: bacteria, purified (glutathione-Sepharose); mock treated (no ERK2)
B10: GST-GLI1^7A, treated with active ERK2 (domain or fragment, human, UniProt P08151-1 68-232, looked up)
chain: B8 chain with S3A, S19A, S35A, S49A, S63A, S79A, S134A
modifications: treated with ERK2; only minimally phosphorylated
notes: also called 7A+ERK2; ERK2-treated GLI1^7A; source: bacteria, purified (glutathione-Sepharose); then treated with purified active ERK2
B11: GST-GLI1^S102, phosphorylated by ERK2 (domain or fragment, human, UniProt P08151-1 68-232, looked up)
chain: B8 chain with S3A, S19A, S49A, S63A, S79A, S134A
modifications: phosphorylated by ERK2; only intact SP site S102
notes: only the SP site S102 intact; also called ERK2-treated GLI1^S102; source: bacteria, purified (glutathione-Sepharose); then phosphorylated with purified active ERK2
B12: GST-GLI1^AAA (GST-GLI1_(68-232) S102A S116A S130A), mock treated (domain or fragment, human, UniProt P08151-1 68-232, looked up)
chain: B8 chain with S35A, S49A, S63A
notes: as for B9
B13: GST-GLI1^S116 (GST-GLI1_(68-232), only S116 intact), mock treated (domain or fragment, human, UniProt P08151-1 68-232, looked up)
chain: B8 chain with S3A, S19A, S35A, S63A, S79A, S134A
notes: only the SP site S116 intact; also called S116 one site only; source: bacteria, purified (glutathione-Sepharose); mock treated (no ERK2)
B14: GST-GLI1^SSS (GST-GLI1_(68-232) S70A S86A S146A S201A), mock treated (domain or fragment, human, UniProt P08151-1 68-232, looked up)
chain: B8 chain with S3A, S19A, S79A, S134A
notes: only S102, S116 and S130 left intact; source: bacteria, purified (glutathione-Sepharose); mock treated (no ERK2)
B15: GST-GLI1^S102,S116, phosphorylated by ERK2 (domain or fragment, human, UniProt P08151-1 68-232, looked up)
chain: B8 chain with S3A, S19A, S63A, S79A, S134A
modifications: phosphorylated by ERK2; intact SP sites S102, S116
notes: only the SP sites S102 and S116 intact; also called ERK2-treated GLI1^S102,S116; source: bacteria, purified (glutathione-Sepharose); then phosphorylated with purified active ERK2
B16: GST-GLI1^S102,S130, phosphorylated by ERK2 (domain or fragment, human, UniProt P08151-1 68-232, looked up)
chain: B8 chain with S3A, S19A, S49A, S79A, S134A
modifications: phosphorylated by ERK2; intact SP sites S102, S130
notes: only the SP sites S102 and S130 intact; also called ERK2-treated GLI1^S102,S130; source: bacteria, purified (glutathione-Sepharose); then phosphorylated with purified active ERK2
B17: GST-GLI1^AAA, treated with active ERK2 (domain or fragment, human, UniProt P08151-1 68-232, looked up)
chain: B8 chain with S35A, S49A, S63A
modifications: treated with ERK2; S70, S86, S146 and S201 remained intact as possible phosphosites
notes: also called GLI1^AAA + ERK2; source: bacteria, purified (glutathione-Sepharose); then phosphorylated with purified active ERK2
B18: GST-GLI1^SSS, phosphorylated by ERK2 (domain or fragment, human, UniProt P08151-1 68-232, looked up)
chain: B8 chain with S3A, S19A, S79A, S134A
modifications: phosphorylated by ERK2; intact SP sites S102, S116, S130
notes: only S102, S116 and S130 left intact; also called ERK-phosphorylated GLI1^SSS; phosphorylated GLI1^SSS mutant; source: bacteria, purified (glutathione-Sepharose); then phosphorylated with purified active ERK2
B19: GST-GLI1^S102 (GST-GLI1_(68-232), only S102 intact), mock treated (domain or fragment, human, UniProt P08151-1 68-232, looked up)
chain: B8 chain with S3A, S19A, S49A, S63A, S79A, S134A
notes: only the SP site S102 intact; also called S102 one site only; source: bacteria, purified (glutathione-Sepharose); mock treated (no ERK2)

Changes are numbered by the printed parent chain. Names may count otherwise. “And” between values parts separate entries of the source, which are not always exact repeats. Identical values can stand only once.

One experiment addresses T1, GST-SUFU (fusion of GST to full-length …). Kind of experiment: pull-down; purified GST-SUFU, 1.25-80 nM, captured on glutathione-Sepharose beads; ∼1 pmol 35S-GLI1 (1-232 or full length) in 200 μl; 15 min at 30°C, then 1 h at room temperature; Binding Buffer + 1 mg/ml BSA; bound GLI1 quantified by SDS-PAGE and Phosphorimager; Kd from binding isotherms. The following applies: one partner purified.
Take B1: the equilibrium dissociation constant (Kd) is 8 nM and 14 nM.
On to B2, for which the Kd was determined as 181 ± 30 nM.
Regarding B3, the “fold reduction in affinity against wild-type GLI1_(1-232)” value stood at 65 fold.
The same measure, in the same setting: next, B4: about 8 fold; B5: 38 fold; B6: 12 fold.
As for B7, the Kd turned out to be 3800 nM.

The target of another experiment is T2, full-length human SUFU protein, …. Kind of experiment: pull-down; purified GST-GLI1_(68-232) variants (mock treated or ERK2 phosphorylated), 0 or 1.25-80 nM, on glutathione-Sepharose beads; ∼1 pmol 35S-SUFU in 200 μl; 15 min at 30°C, then 1 h at room temperature; Binding Buffer (20 mM Tris-HCl pH 7.5, 125 mM KOAc, 0.5 mM EDTA, 5 mM DTT, 0.1% Tween20, 12.5% glycerol) + 1 mg/ml BSA; bound SUFU quantified by SDS-PAGE and Phosphorimager; Kd from binding isotherms. The note with it: one partner purified.
As to B8, the Kd was ~4 nM and 4 nM and 3 nM.
For B9, the Kd was about 23 nM.
On the same count and under the same terms, next, B10: about 23 nM.
As for B11, the Kd was determined as 14 ± 4 nM.
With B12, the Kd worked out at 17 nM.
Regarding B13, the Kd turned out to be 14 nM.
With B14, the Kd worked out at 2.6 nM.
Still for that read-out and setting: next, B15: 43 ± 8 nM; B16: 25 ± 3 nM.
As to B17, the Kd was 20 nM.
As for B18, the Kd is 127 nM.
B19: the dissociation constant Kd was about 3 nM.
